Data on 5 molecules can be found in US20250270343A1 (Alector, published 2025).

Assay [1] has as its target T1, full-length untagged human GPNMB expressed on cells (human, UniProt Q14956 23-572).
T1 sequence: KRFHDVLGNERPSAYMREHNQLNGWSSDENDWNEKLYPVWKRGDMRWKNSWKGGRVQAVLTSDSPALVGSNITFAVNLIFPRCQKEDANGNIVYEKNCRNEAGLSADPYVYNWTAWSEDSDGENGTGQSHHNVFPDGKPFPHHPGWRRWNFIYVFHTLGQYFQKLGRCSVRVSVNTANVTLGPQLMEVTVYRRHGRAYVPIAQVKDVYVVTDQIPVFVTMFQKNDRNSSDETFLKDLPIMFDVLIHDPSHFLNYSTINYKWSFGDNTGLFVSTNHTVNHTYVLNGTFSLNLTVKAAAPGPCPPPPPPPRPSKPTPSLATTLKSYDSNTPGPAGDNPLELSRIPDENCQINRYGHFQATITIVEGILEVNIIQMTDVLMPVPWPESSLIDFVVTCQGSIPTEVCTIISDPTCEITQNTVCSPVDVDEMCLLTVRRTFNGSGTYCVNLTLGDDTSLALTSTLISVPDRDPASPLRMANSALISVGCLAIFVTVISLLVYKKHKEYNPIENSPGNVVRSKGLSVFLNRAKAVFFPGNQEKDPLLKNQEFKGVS
The assay is described as follows: cell-based or functional assay.

In assay [2] the target is T2, soluble mouse GPNMB-Fc polypeptide (mouse IgG2A Fc) (mouse, UniProt Q99P91 23-502).
T2 construct: extracellular domain; bought (R&D System); also called moGPNMB-Fc; mGPNMB-Fc; not shown: Fc region of mouse IgG2A
T2 sequence (looked up): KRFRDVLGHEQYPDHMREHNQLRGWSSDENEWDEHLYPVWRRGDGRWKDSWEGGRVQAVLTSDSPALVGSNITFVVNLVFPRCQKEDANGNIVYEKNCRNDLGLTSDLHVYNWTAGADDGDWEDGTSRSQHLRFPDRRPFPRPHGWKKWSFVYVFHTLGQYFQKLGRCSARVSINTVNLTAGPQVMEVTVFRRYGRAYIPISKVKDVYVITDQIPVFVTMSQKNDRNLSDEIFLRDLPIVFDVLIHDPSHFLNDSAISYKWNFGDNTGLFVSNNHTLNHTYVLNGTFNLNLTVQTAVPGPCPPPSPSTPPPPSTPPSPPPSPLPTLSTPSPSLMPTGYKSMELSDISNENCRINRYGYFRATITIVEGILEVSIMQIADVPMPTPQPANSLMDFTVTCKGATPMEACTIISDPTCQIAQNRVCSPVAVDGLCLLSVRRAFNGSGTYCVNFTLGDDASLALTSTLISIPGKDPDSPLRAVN
The assay is described as follows: FACS, enhancing of moGPNMB-Fc binding to SVEC4-10 cells. How it is done:
(§1) Purified full-length anti-GPNMB antibodies of the present disclosure were evaluated for their ability to block binding of moGPNMB-Fc to SVEC4-10 cells to determine the ligand blocking potency of each anti-GPNMB monoclonal antibody. Briefly, 2 μg/mL moGPNMB-Fc (mouse IgG2A Fc) diluted in binding buffer was pre-complexed with increasing concentrations of anti-GPNMB antibody of the present disclosure or human IgG1 isotype control antibody in 96-well plates. Subsequently, 100,000 SVEC4-10 cells were added per well and incubated on ice for 30 minutes. Soluble moGPNMB-Fc bound to cell surface was detected with fluorescent anti-mouse IgG2A secondary antibody and measured on FACSCanto. (FIG. 5A and FIG. 5B) IC50 values (for antibodies that block moGPNMB-Fc cell binding) and EC50 values (for antibodies that enhance moGPNMB-Fc cell binding) based on changes in MFI values were calculated (average+standard error) for each anti-GPNMB antibody and listed in Table 6. In Table 6, NA indicates no activity. […] In all cases, certain anti-GPNMB antibodies of the present disclosure blocked soluble GPNMB binding to cells, while other anti-GPNMB antibodies of the present disclosure enhanced soluble GPNMB binding to cells.
(In general: A flow cytometer gives signals particle by particle.)

The target of assay [3] is T2, soluble mouse GPNMB-Fc polypeptide …. The assay is described as follows: FACS, blocking of moGPNMB-Fc binding to SVEC4-10 cells. How it is done: as §1

B1: anti-GPNMB antibody GPN-37 (antibody, human IgG1, V domains shown)
VH: EVQLVESGGGLVQPGRSLKLSCAASGFTFSSKSGMAWVRQAPTKGLEWVASISNGGGDTYYRDSVKGRFTISRDNAKNTQYLQMDSLRPEDTATYYCARHRDYGYDAYFDYWGQGVMVTVSS
VL: DIQMTQSPASLSASLGETVTIECLASEDIYSSLAWYQQKPGKSPQLLIYDASSLQDGVPSRFSGSESGTQYSLEINSLQSEDAATYFCQQHHDYPYTFGAGTKLELK
notes: chimeric
For B1, in assay [1], the “IC50 (read off the curve) of the loss of cell surface GPNMB (MFI), internalization assay on human macrophages” value is around 2 nM.

B2: anti-GPNMB antibody GPN-65 (antibody, human IgG1, V domains shown)
VH: QLQLQQSGTEVVKPGASVKIPCKASGYAFSSYWMNWVKQRPGKGLEWIGQIYPGDGDTNDNGKFEGKATLTVDKSSNTAYIQLSSLTSEDSAVYFCARSPLHLRGSMDYWGQGTSVTVSS
VL: SIVMTQTPKFLLVSAGDRVTITCKASQSVSNDVAWFQQKPGQSPELLIYSASNRYTGVPDRFTGSGYGTDFTFTISTVQAEDLAVYFCQQNYYSPFTFGGGTRLEIK
notes: chimeric
For orientation: EC50 means the concentration giving half of the maximal effect. As for B2, the “IC50 (read off the curve) of the loss of cell surface GPNMB (MFI), internalization assay on human macrophages” value in assay [1] was around 2 nM. The EC50 in assay [2] worked out at 4.27 nM.

B3: anti-GPNMB antibody GPN-52 (antibody, human IgG1, V domains shown)
VH: DVQLQESGPGLVKPSQTVFLTCTVTGISITTGNYRWSWIRQFPGNKLEWIGYIYYSGTITYNPSLTSRITITRDTPKNEFFLEMNSLTAEDTATYYCARDLTHWYFDVWGTGTTVTVSS
VL: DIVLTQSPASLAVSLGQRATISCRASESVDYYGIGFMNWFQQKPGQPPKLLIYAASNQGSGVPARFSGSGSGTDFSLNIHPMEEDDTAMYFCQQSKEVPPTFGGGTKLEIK
notes: chimeric
In general, IC50 refers to the concentration that inhibits the measured activity by half. As for B3, the “IC50 (read off the curve) of the loss of cell surface GPNMB (MFI), internalization assay on human macrophages” value in assay [1] is around 2 nM. Moreover, the 50% inhibitory concentration (IC50) in assay [3] amounted to 1 nM.

B4: anti-GPNMB antibody GPN-61 (antibody, human IgG1, V domains shown)
VH: DVQLQESGPGLVKPSQTVFLTCTVTGISITTGNYRWSWIRQFPGNKLEWIGYIYYSGTITYNPSLTSRTTITRDTPKNQFFLEMSSLTAEDTATYFCARDLRHWYFDVWGTGTTVTVSS
VL: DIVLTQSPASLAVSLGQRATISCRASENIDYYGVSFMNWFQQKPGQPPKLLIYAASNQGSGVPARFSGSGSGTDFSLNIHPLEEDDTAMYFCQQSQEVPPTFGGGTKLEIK
notes: chimeric
On to B4, for which, in assay [1], the “IC50 (read off the curve) of the loss of cell surface GPNMB (MFI), internalization assay on human macrophages” value was around 2 nM. This molecule returned a half-maximal inhibitory concentration (IC50) in assay [3] of 0.77 nM.

B5: anti-GPNMB antibody GPN-42 (antibody, human IgG1, V domains shown)
VH: DVKLVESGEDLVKPGGSLKLSCAASGFTFSSYAMSWVRQTPEKRLEWVAYISSGGDYIYYADTVKGRFTISRDNARNTLYLQMSSLKSEDTAMYYCTRDRYYDYDVRDYYTMDYWGQGTSVTVSS
VL: DVMMTQTPLSLPVSLGDQASISCRSSQSLVHSNGNTYLHWFLQKPGQSPKLLIFRVSNRFSGVPDRFSGRGSGTDFTLKISRVEAEDLGVYFCSQTTHVPRTFGGGTTLEIK
notes: chimeric
Consider B5, for which the EC50 in assay [2] stood at 1.19 nM.
